We go through 41 sequences from the nanobody polyreactivity screen of Harvey et al. (2022).

The series is described as follows: yeast display, Sf9 membrane polyspecificity reagent, FACS + sequencing; frameworks hold sequencing errors. The method, boiled down:
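A nanobody's polyreactivity label depends on the gate it was sorted from. Yeast display cells were stained with 10% biotinylated, detergent-solubilized Sf9 membrane reagent for 1 hour at 4 °C, enriched on streptavidin microbeads and sorted by FACS. The low and high (top ~1%) gates were set on anti-HA fluorescence for expression and streptavidin fluorescence for reagent binding.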
With “QVQLVESGGGLVQAGGSLRLSCAASGSSFAGNAMGWYRQAPGKERELVAAIDSSTGSTYYADSVKGRFTISRDNAKNTVYLQMNSLKPEDTAVYYCNKTSFLVKLDYWGQGTQVTLSS”, the “polyreactivity (PSR sort gate)” value is reported as “low polyreactivity”.
As for “QVQLVESGGGLVQAGGSLRLSCAASGGTFYTNVMGWYRQAPGKERELVAAITRSGGSTHYADSVKGRFTISRDNAKNTVYLQMNSLKPEDTAVYYCAKDRVGEMYYWGQGTQVTVSS”, the entry is “low polyreactivity”; as for “QVQLVESGGGLVQAGGSLRLSCAASGSTFYYYAMGWYRQAPGKERELVAAINSGGRTNYADSVKGRFTISRDNAKNTVYLQMNSLKPEDTAVYSCARDGYHRDYDYWGQGTQVTVSS”, “low polyreactivity”; as for “QVQLVESGGGLVQAGGSLRLSCAASGRIITKYTMGWYRQAPGKERELFAAISRSDRTNYADSVKGRFTISRDNAKNTVYLQMNSLKPEDTAVYYCNARHSYWTGRRVTDDYDYRGQGTQVTVSS”, “high polyreactivity”.
As for “QVQLVESGGGLVQAGGSLRLSCAASGSIFYAYAMGWYRQAPGKERELVATISSVGSTYYADSVKGRFTISRDNAKNTVYLQMNSLKPEDTAVYYCAKQRIVVYKTGYDYWGQGTQVTVSS”, the entry is “low polyreactivity”.
As for “QVQLVESGGGLFQAGGSLRLSCAASGRTFRYYVMGWYRQAPGKERELVAAISKSGASTYYADSVKGRFTISRDNAKYTVYSQMNSLKPEDTAVYYCAAGGVYSIYRTSRVGYDYWGQGTQVTVSS”, the entry is “high polyreactivity”; as for “QVQLQESGGGLVQAGGSLRLSCAASGNIFSSGVMGWYRQAPGKERELVATINVGANTNYADSVKGRFTISRDNAKNTVYLQMNRLKPEDTAVYYCAVDKGDDGSFYLWGQGTQVTVSS”, “high polyreactivity”.
“QVQLVESGGGLVQAGFSLRLSCAASGSIFFIYDKGWYRQAPGKERELVADITSGGGSTFYADSVKGRFTISRDNAKNTVYLQMNSLKPEDTAVYYCATDDHDQPGGQLYISEVNYWGQGTQVTVSS”: the “polyreactivity (PSR sort gate)” value is given as “low polyreactivity”.
With “QVQLVDSGGGLVQAGGSLRLSCAASGFIIGYNAMGWYRQAPGKEREFVAAISYNGGSTRYADSVKGRFTISRDNAKNTVYLQMNSLKPEDTAVYYCAAQKARVYRGAWTRYEYWGQGTQVTVSS”, the “polyreactivity (PSR sort gate)” value was “high polyreactivity”.
On to “QVQLVESGGGLVQAGGSLRLSCAASGRTFWYNAMGWYRQAPGKERELVAAITSSGGSTYYADSVKGRFTISRDNAKNTVYLQMNSLKPEDTAVYYCNKRPGPYKWPPRHDYWGQGTQVTVSS”, for which the “polyreactivity (PSR sort gate)” value was “low polyreactivity”.
The same measure for “QVQLVESGGGLVQAGGSLRLSCAASGITFEANTMGWYRQAPAKERELVAVITDTGSTNYADSVKGRFTISRDNAKNTVYLQMNSLKPEDTAVFYCKADAEPSSGTSAKNDYWGQGTQVSVSS”: “low polyreactivity”.
The same measure for “QDQLVESGGGLVQAGGSLRLSCAASGLNLGIYAMGWYRQAPGKERELVAAISRGGGSTYYADSVKGRFTISRDNAKNTVYLQMNSLKPEDTAVFYCNAVRYRYGVFPYYYWGQGTQVTVSS”: “high polyreactivity”; for “QVQLVESGGGLVQAGGSLRLSCAASGSIFQWYAMGWYRQAPGKERELVAAITISGTRTYYADSVKGRFTISRDNAKYTVYLQMNSLKPEDTAVYYCAATEGGRFRRIADASMYYWGQGTQVTVSS”: “high polyreactivity”.
The same measure for “QVQLVETGGGLVQAGGSLRLSCAASGSTFGYNGMGWYRQAPGKERELVAAISGGARTYADSVKGRFTISRDNAKNTVYLQMNSLIPEDTAVYYCAADSPVSVTADDGYWGLGTQVTVSS”: “low polyreactivity”; for “QVQLVESGGGLVQAGGSLRLSCAASGRIFVIYAMGWYRQAPGTERELVAAITARGSNTYYADSVKGRFTISRDNAKNTVYLQMNSLKPEDTAVYYCNAEARSYRYPYNYWGQGTQVTVSS”: “high polyreactivity”; for “QVQLVESGGGLVQAGGSLRLSCAASGRIFGVYAMGWYRQAPGKERELVAAIDSSDASTYYADSVKGRFTISRDNAKNTVYLQMNSLKPEDTAVYYCAADNPAAVYGYDYWGQGTQVTVSS”: “low polyreactivity”.
On to “QVQLVESGGGLVQAGGSLRLSCAASGRTFDWNAMGWYRQAPGKERELVAAISGGGGSTYYADSVKGRFTISRDNAKNTVYLQMNSLKPEDTEVYYCATWNYYSYHRYDYWGQGTQVTVSS”, for which the “polyreactivity (PSR sort gate)” value was “high polyreactivity”.
With “QVQLVDSVGGLVQAGGSLRLSCAASGRIFRYYAMGWYRQAPRKERELVAAITWSGGSTYYADSVKGRFTISRDNAKNTVYLQMNSLKPEDTAVYYCNADSVYAGFDYWGQGTQVTVSS”, the “polyreactivity (PSR sort gate)” value was “low polyreactivity”.
As for “QVHLVESCGGLVQAGGSLRLSCAASGSTFTYNVMGSYRQAPGKERELVAAISWSGGSTFYADSVKGRFTISRDNAKNTVYLQMNSLKPEDTAVYYCNKDHLVYPSEFYYWGQGTQVTVSS”, the entry is “low polyreactivity”; as for “QVQLVESGGGLVQAGGSLRLSCAASGRILWSYPMGWYRQAPGKEREFVATINRSGGNTHYADSVKGRFTISRDNAKNTVYLQMYSLKPEDTAVYYCAALNLVPYGYQGLRYYYWGQGTQVTVSS”, “high polyreactivity”; as for “QVQLVESGGGLVQAGGSLRLSCAATGSTFTSYAMGWYRQAPGKERELVAVISFSGGSTYYADSVKGRFTISRDNAKNTVYLQMNSLKPEDTAVYYCAARIYKRYYWGQGTQVTVSS”, “high polyreactivity”.
Regarding “QVQLVESGGGLVQAGGSLRLSCADSGRTFRYYAMGWYRQAPGKERELVAAITSGGSTYYADSVKGRFTISRDNAKNTVYLQMNSLKPEDTAVYYCAAARYEPFIYDYGYWGQGTQVTVSS”, the “polyreactivity (PSR sort gate)” value is “low polyreactivity”.
For the sequence “QVQLVESGGGLVQAGGSHRLSCAASGRTFPGNAMGWYRQAPGKERELVAAISWSGTRTYYADSVKGRFTISRDNAKNTVYLQMNSLKPEDTAVYYCNVVVKGAWDYYPYDYWGQGTQVTVSS”, the “polyreactivity (PSR sort gate)” value is given as “high polyreactivity”.
Regarding “QVQLVESGGGLVQARGSLRLTCAASGRNFYLNAMGWYRQAPGKERELVAAITWSGGRTYYADSVKGRFTISRDNAKNTVYLQMYSLKPEDTAFYYCAAVPRPGPNTVLTPYVYWGQGTQVTVSS”, the “polyreactivity (PSR sort gate)” value was “high polyreactivity”.
As for “QVQLVESGGGLVQAGGSLRLSGAASGSIFYSNARGWYRQAPGKERELVAAITVGGGRTYYADSVKGRFTISRDNAKNTVYLQMNSLKPEDTAVYYCAADSHASTYDYWGQGTQVTVSS”, the entry is “low polyreactivity”; as for “QVQLVESGGGLVQAGGSLRLSCAASGRILKYYDMGWYRQAPGKETELVAAISVSGTSTYYADSVKGRFTISRDNAKNTVYLQMNSLKPEDTAVYYCATATGRYSFDYWGKGTQVTVSS”, “low polyreactivity”; as for “QVQLVESGGGLVQAGGSLRFSCAASGSTVYSYAMGWYRQAPGKERELVAAITRGGRTYYADSVKGRFTISRDNAKNTVYFKMNSLKPEDTAVYSCKVVTKFTGRGYDYWGQGSQVTVSS”, “high polyreactivity”.
The same measure for “QVQLLESGGGLDQAGGSLRLSCAASGRTFDRYAMGWYRQAPGKERELVAAISGRGGSTYYADSVKGRFTISRDNAKNTVYLQMNSLKPEDTAVYYCAARGSLWGAPTDYYYWGQGTQVTVSS”: “high polyreactivity”; for “QVQLVESGGGLVQAGGRLRLSCAASGNTFDYYAMGWYRPAPGKERELVAAITRGGSTNYADSVKGRFTISRDNAKNTVYLQMNSLKPEDTAVYYCAAEQRAPRFADYDYWGQGTQVTVSS”: “low polyreactivity”; for “QVQLVESGGGLVQAGGSLRLSCAASGITFYDNVMGWYRQAPGKERELVAAITSGGSTNYADSVKGRFTISRDNAKNTVYLQMNSLKPEDTAVYYCAAEGISVTAAQSEWYDYWGQGTQVTVSS”: “low polyreactivity”.
As to “QVQLVESGGGLVQAGGSLRLSCASSGFTFFYYAMGWYRQAPGKERELVAAISASGGSTSYADSVKGRFTISRDNAKNTVYLQMNSLKPEDTAVYYCAARVYSVRSGYYYWGQGTQVTVSS”, the “polyreactivity (PSR sort gate)” value was “high polyreactivity”.
The same measure for “QVQLVESGGGLVQAGGTLRLSCAASGITFVQYAMGWYRQAPGKETELVASITRRGGSTYYADSVKGRFTISRDNAKNTVYLQMNSLKQEDTAVYYCAARWSAWRGYIFDYWGQGTQVTVSS”: “high polyreactivity”; for “QVQLVESGGGLVQAGGSLRLSCASSGRTISHNAMGWYRQAPGKERELVAAISRSGGRTYYADSVKGRFTISRYNAKNTVYLQMNSLKPEDTAVYYCAAEYFDGSTYSYYYWGQGTQVTVSS”: “high polyreactivity”.
The same measure for “QEQLQESGGGLVQAGGSLRLSCAASGSISQAWYMGWYRQAPGKERELVAAINVGAITYYADSVKGRFSISRDNAKNTVYLPMNSLTPEDTGVYYCAVDQYSEAYYDYWGQGTQATVSS”: “high polyreactivity”.
As for “QVQLVESGGGLVQAGGSLRLSCAASGSTFTNYAMGWYRQAPGKERELVAAINNDRTNYADSVKGRFTISRDNAKNTVYLQMNSLKPEDTAVYYCAAQWRVYGYKISRRNYWGQGTQVTVSS”, the entry is “high polyreactivity”; as for “QVQLVESGGGLVQEGGSLRLSCAASGFIFHVNAMGWYRQAPGKERELVARITTSGGNTFYADSVKGRFTISRDNAKNTVYLQMNSLKPEDTAVYYCAIRYRYSVGWPVKNSAFGYWGQGTQVTVSS”, “low polyreactivity”.
With “QVQLVESGGGLVQAGGSLRLSCAASGRIFDYYAMGWYRQAPGKERELVASISRSGGSTYYADSVKGRFTISRDNAKNTVYLQMNSLKPEDTAVYYCAAVRYITKEFYWGQGTQVTVSS”, the “polyreactivity (PSR sort gate)” value is “high polyreactivity”.
As for “QVQLVESGGGLVQAGGSLRLSCAASGSIFSNAMGWYRQAPGKERELVAAITGRGGRTYYADSVKGRFTISRDNAKNTVFLQMNSLKPEDTAVDYCARDSPWSSRYRYRAFDYWGQGTQVTVSS”, the entry is “high polyreactivity”; as for “QVQLVESGGGLVQAGGSLRLSCAATGFTFGSNVMGWYRQAPGKERELVATIRRGGSTNYADSVKGRFTISRDNAKNTVYLQLNSLKPEDTAVYYCATRYREWGQGTQVTVSS”, “high polyreactivity”.
The same measure for “QVQLVESGGGLVQAGGSLRLSCAASGSTFVDNAMGWYRQAPGKERELVAAISRGGSTHYADSVKGRFTISRDNAKNTVYLQMNSLKPEDTAVYYCNKDTKRLLWFYKYYYWGQGTQVTVSS”: “high polyreactivity”; for “QVQLVESGGGLVQAGGSLRLSCAASGSIFTYNAMGWYRQAPGKERELVAAINTSGSTNYADSVKGRFTISRDNAKNTVYLQMNSLKPEDTAVYYCAAGIVVTGYAYWGQGTQVTVSA”: “low polyreactivity”.
